Experimental data as given in PMC7039556.

Legend:
[1] = target: isolated human low-density lipoprotein (LDL) particles (human (endogenous in plasma)); assay: co-sedimentation; Optiprep density gradient ultracentrifugation: 1 μg PCSK9 (concentrated conditioned medium) with 500 μg isolated human LDL in 1.0 ml HBS-C (25 mM HEPES-KOH pH 7.4, 150 mM NaCl, 2 mM CaCl2), 0.5% BSA, 37 °C 1 h; LDL fraction immunoprecipitated with anti-PCSK9 serum, PCSK9 quantified by Western blot and normalised to WT
[2] = target: isolated human low-density lipoprotein (LDL) particles; assay: density gradient ultracentrifugation of PCSK9-LDL binding reactions, Western blot densitometry; conditions: conditioned cell culture medium incubated with LDL; n = 4; read off a plot

| ratio to parent [2] | Substance | further results |
| --- | --- | --- |
|  | human PCSK9 with the hydrophobic stretch (aa 41–45) and Arg-46 replaced by a glycine-serine linker (from UniProt Q8NBP7 31-152; Q8NBP7 153-692) (natural protein) | percent reduction of LDL binding against WT PCSK9 [1]: > 60% |
|  | R469W and F515L substitutions (PCSK9) | percent decrease of LDL binding against WT PCSK9 [1]: 60 to 70% |
| 0.92 | FLAG epitope-tagged recombinant human WT PCSK9 (proprotein convertase subtilisin/kexin type-9) (from UniProt Q8NBP7) Y38L |  |
| 1 | FLAG epitope-tagged recombinant human WT PCSK9 (proprotein convertase subtilisin/kexin type-9) (from UniProt Q8NBP7) Y38F |  |
